The target in one assay is HLA-B*57:01. Put plainly: IEDB peptide-MHC binding, purified MHC/direct/fluorescence; filed as Kd, often an IC50 or EC50 that approximates it; ≥ and ≤ were set here for values at or beyond the usual limits of such assays.
For a further assay, the target named is HLA-B*40:01. The assay is described as above.
Assay [1] addresses HLA-A*11:01. The assay is described as above.
For a further assay, the target named is HLA-A*68:02. The description is as above.
Assay [2] has as its target HLA-A*02:01. The assay is described as above.
The target in assay [3] is HLA-B*07:02. The assay is described as above.
The target of assay [4] is HLA-B*18:01. The assay is described as above.
The next assay addresses HLA-B*58:01. The description is as above.
Assay [5] has as its target HLA-A*26:02. Described as above.
For another assay, the target named is HLA-B*46:01. The description is as above.
Another assay addresses HLA-A*26:03. Described as above.
In a further assay the target is HLA-A*01:01. The description is as above.
Another assay addresses HLA-B*27:05. The assay is described as above.
In assay [6] the target is HLA-B*08:01. The description is as above.
The target in a further assay is HLA-B*48:01. The description is as above.
Assay [7] has as its target HLA-B*15:01. The description is as above.
The next assay deals with HLA-A*03:01. Described as above.
The target of a further assay is HLA-B*08:03. Described as above.
For a further assay, the target named is HLA-A*69:01. The assay is described as above.
For a further assay, the target named is HLA-A*31:01. Described as above.
Assay [8] deals with HLA-B*15:17. Put plainly: IEDB peptide-MHC binding, purified MHC/competitive/fluorescence; filed as Kd, often an IC50 or EC50 that approximates it; ≥ and ≤ were set here for values at or beyond the usual limits of such assays. Particulars: source organism: Vaccinia virus WR.
For assay [9], the target named is HLA-B*15:17. Put plainly: IEDB peptide-MHC binding, purified MHC/direct/fluorescence; filed as Kd, often an IC50 or EC50 that approximates it; ≥ and ≤ were set here for values at or beyond the usual limits of such assays.
The next assay deals with HLA-A*02:19. The assay is described as above. Particulars: source organism: Salmonella enterica subsp. enterica serovar Typhimurium str. LT2.
The target in a further assay is HLA-A*02:11. The assay is described as above. The conditions noted are these: source organism: Salmonella enterica subsp. enterica serovar Typhimurium str. LT2.
The target of assay [10] is HLA-A*26:02. Put plainly: IEDB peptide-MHC binding, purified MHC/competitive/fluorescence; filed as Kd, often an IC50 or EC50 that approximates it; ≥ and ≤ were set here for values at or beyond the usual limits of such assays. Particulars: source organism: Salmonella enterica subsp. enterica serovar Enteritidis.
Another assay deals with HLA-A*02:06. Described as above.
Assay [11] addresses HLA-A*11:01. Put plainly: IEDB peptide-MHC binding, purified MHC/competitive/fluorescence; ≥ and ≤ were set here for values at or beyond the usual limits of such assays. Particulars: source organism: Zaire ebolavirus.
Assay [12] concerns the target HLA-A*02:01. The assay is described as above. Particulars: source organism: Zaire ebolavirus.
Another assay has as its target HLA-A*24:02. The assay is described as above. The conditions noted are these: source organism: Zaire ebolavirus.
The target of assay [13] is HLA-B*07:02. Described as above. Particulars: source organism: Zaire ebolavirus.
Assay [14] concerns the target HLA-B*08:01. Described as above. Particulars: source organism: Zaire ebolavirus.
In assay [15] the target is HLA-B*15:01. The assay is described as above. Particulars: source organism: Zaire ebolavirus.
Another assay concerns the target HLA-A*24:03. Put plainly: IEDB peptide-MHC binding, purified MHC/direct/fluorescence; filed as Kd, often an IC50 or EC50 that approximates it; ≥ and ≤ were set here for values at or beyond the usual limits of such assays. Particulars: source organism: Vibrio vulnificus YJ016.
For the next assay, the target named is HLA-B*15:09. The description is as above. Particulars: source organism: Vibrio vulnificus CMCP6.
The target in a further assay is HLA-A*26:01. Described as above. The conditions noted are these: source organism: Vibrio vulnificus CMCP6.
The target of another assay is HLA-A*23:01. Described as above. Particulars: source organism: Vibrio vulnificus YJ016.
In assay [16] the target is HLA-B*18:01. Nature of the assay: IEDB peptide-MHC binding, purified MHC/competitive/fluorescence; filed as Kd, often an IC50 or EC50 that approximates it; ≥ and ≤ were set here for values at or beyond the usual limits of such assays. The conditions noted are these: source organism: Vibrio vulnificus YJ016.
Where [17] appears, read: source organism: Camelpox virus M-96.
Where [18] appears, read: source organism: Salmonella enterica.
The mark [19] stands for this setting: source organism: Vibrio cholerae.
Setting [20] is: source organism: Vibrio vulnificus CMCP6.
[21] abbreviates: source organism: Vibrio vulnificus YJ016.

This is an account of results in the Immune Epitope Database (IEDB).

For orientation: Kd means the constant that tells how readily two partners part at equilibrium. The low end stands for tighter binding, the high end for weaker binding. For orientation: IC50 means the concentration needed to halve the response being measured. A low value points to inhibition by little substance.

Turning to ATNDGLIKK, the Kd with HLA-B*57:01 (setting [17]) is no less than 20 µM; with HLA-B*40:01 (setting [17]), no less than 20 µM; in the assay with HLA-A*11:01 [1] (setting [17]) it was 0.01 µM; in the assay with HLA-A*68:02 (setting [17]), no less than 20 µM; with HLA-A*02:01 [2] (setting [17]) it was no less than 20 µM; with HLA-B*07:02 [3] (setting [17]) it was no less than 20 µM. Further, the Kd with HLA-B*18:01 [4] (setting [17]) was no less than 20 µM; in the assay with HLA-B*58:01 (setting [17]) it was 9 µM; with HLA-A*26:02 [5] (source organism: Variola virus) it was no less than 20 µM; in the assay with HLA-B*46:01 (setting [17]), no less than 20 µM; with HLA-A*26:03 (source organism: Variola virus) it was no less than 20 µM; in the assay with HLA-A*01:01 (setting [17]), no less than 20 µM. The equilibrium dissociation constant (Kd) with HLA-B*27:05 (setting [17]) is no less than 20 µM; in the assay with HLA-B*08:01 [6] (source organism: Variola virus), no less than 20 µM; with HLA-B*48:01 (setting [17]), no less than 20 µM; in the assay with HLA-B*15:01 [7] (setting [17]) it was no less than 20 µM; with HLA-A*03:01 (setting [17]) it was 1.46 µM; in the assay with HLA-B*08:03 (source organism: Variola virus), no less than 20 µM. For the same sequence, the equilibrium dissociation constant (Kd) is no less than 20 µM in the assay with HLA-A*69:01 (setting [17]), 0.119 µM with HLA-A*31:01 (setting [17]) and no less than 20 µM with HLA-B*15:17 [8].
MGKTITDVK: the Kd is no less than 20 µM with HLA-B*15:17 [9] (setting [18]); no less than 20 µM with HLA-B*57:01 (setting [18]); no less than 20 µM with HLA-B*40:01 (setting [18]); 0.42 µM with HLA-A*11:01 [1] (setting [18]); no less than 20 µM with HLA-A*68:02 (setting [18]); no less than 20 µM with HLA-A*02:01 [2] (setting [18]). Besides, the Kd in the assay with HLA-B*07:02 [3] (setting [18]) was no less than 20 µM; with HLA-B*18:01 [4] (setting [18]), no less than 20 µM; with HLA-B*58:01 (setting [18]) it was no less than 20 µM; with HLA-A*02:19 it was 6 µM; in the assay with HLA-A*02:11, no less than 20 µM; with HLA-B*46:01 (setting [18]), no less than 20 µM. The equilibrium dissociation constant (Kd) in the assay with HLA-A*01:01 (setting [18]), in the assay with HLA-B*27:05 (setting [18]), in the assay with HLA-B*48:01 (setting [18]), in the assay with HLA-B*15:01 [7] (setting [18]), with HLA-A*03:01 (setting [18]) and with HLA-B*08:03 (source organism: Salmonella enterica subsp. enterica serovar Typhimurium str. LT2) was no less than 20 µM throughout. The values for the Kd with HLA-A*31:01 (setting [18]), with HLA-A*26:02 [10] and with HLA-A*02:06 (source organism: Salmonella enterica subsp. enterica serovar Enteritidis) were 1.57 µM, 2.74 µM and 0.289 µM, respectively.
Consider KGHLPLLDK, for which the Kd in the assay with HLA-B*15:17 [9] (setting [19]), with HLA-B*57:01 (setting [19]), in the assay with HLA-B*40:01 (setting [19]), in the assay with HLA-A*68:02 (setting [19]), with HLA-A*02:01 [2] (setting [19]) and in the assay with HLA-B*07:02 [3] (setting [19]) was no less than 20 µM in each case. Besides, the dissociation constant (Kd) in the assay with HLA-B*58:01 (setting [19]), with HLA-A*26:02 [5] (setting [20]), with HLA-B*46:01 (setting [19]), in the assay with HLA-A*26:03 (setting [20]), with HLA-A*01:01 (setting [19]) and with HLA-B*27:05 (setting [19]) was no less than 20 µM in each case. The Kd with HLA-B*08:01 [6] (setting [20]) is no less than 20 µM; with HLA-B*48:01 (setting [19]), no less than 20 µM; with HLA-B*15:01 [7] (setting [19]), no less than 20 µM; with HLA-A*03:01 (setting [19]), 0.0555 µM; in the assay with HLA-B*08:03 (setting [20]), no less than 20 µM; in the assay with HLA-A*69:01 (setting [19]), no less than 20 µM. Also, the Kd in the assay with HLA-A*31:01 (setting [19]) is 3.98 µM.
Regarding TIHHASAPL, the IC50 with HLA-A*11:01 [11] is no less than 85 µM; with HLA-A*02:01 [12], 5.58 µM; with HLA-A*24:02, 46.9 µM; with HLA-B*07:02 [13], 14.7 µM; with HLA-B*08:01 [14], no less than 126 µM; with HLA-B*15:01 [15] it was 14.4 µM.
Take GWPDNYCEW: the Kd in the assay with HLA-B*15:17 [9] (setting [21]), in the assay with HLA-B*57:01 (setting [21]), in the assay with HLA-A*11:01 [1] (setting [21]), with HLA-A*68:02 (setting [21]), in the assay with HLA-A*02:01 [2] (setting [21]) and with HLA-B*07:02 [3] (setting [21]) was no less than 20 µM throughout. Further, the Kd with HLA-A*24:03 is 0.0067 µM; with HLA-B*58:01 (setting [21]), no less than 20 µM; in the assay with HLA-B*15:09, no less than 20 µM; with HLA-A*01:01 (setting [21]) it was no less than 20 µM; with HLA-B*08:01 [6] (setting [20]), no less than 20 µM; with HLA-A*26:01 it was no less than 20 µM. Also, the dissociation constant Kd with HLA-A*23:01 is 0.225 µM; in the assay with HLA-B*15:01 [7] (setting [21]), no less than 20 µM; with HLA-B*08:03 (setting [20]), no less than 20 µM; with HLA-A*69:01 (setting [21]), no less than 20 µM; in the assay with HLA-A*31:01 (setting [21]), no less than 20 µM; with HLA-B*18:01 [16], 2.29 µM. Also, the dissociation constant Kd with HLA-A*02:06 (setting [21]) came out at 2.17 µM.
